{"source": "patent US20060134801A1", "about": "“Methods and compositions involving MDA-7” (Board of Regents, The University of Texas System, priority 2003, published 2006)", "key": {"SK-Mel-1 [1]": {"system": "SK-Mel-1", "experiment": "TUNEL apoptosis assay", "assay_type": "cell-based, human", "settings": "40 ng/ml, 3 days", "description": "(§1) The mechanism of the anti-tumor activity of rhMDA-7 was also evaluated. Melanoma cells were treated with rhMDA-7 protein and assessed for apoptosis using the TUNEL assay. […] These studies were performed with purified rhMDA-7 protein. The melanoma cells have also been treated with supernatant from 293-mda7 cells or control 293 cells. Only the 293-mda7 supernatant causes cell killing."}, "A375.S2 [2]": {"system": "A375.S2", "experiment": "TUNEL apoptosis assay", "assay_type": "cell-based, human", "settings": "40 ng/ml, 3 days", "description": "as §1"}, "WM793 [3]": {"system": "WM793", "experiment": "TUNEL apoptosis assay", "assay_type": "cell-based, human", "settings": "40 ng/ml, 3 days", "description": "as §1"}, "WM35 [4]": {"system": "WM35", "experiment": "TUNEL apoptosis assay", "assay_type": "cell-based, human", "settings": "40 ng/ml, 3 days", "description": "as §1"}, "MeWo [5]": {"system": "MeWo", "experiment": "TUNEL apoptosis assay", "assay_type": "cell-based, human", "settings": "40 ng/ml, 3 days", "description": "as §1"}, "A375 [6]": {"system": "A375", "experiment": "TUNEL apoptosis assay", "assay_type": "cell-based, human", "settings": "40 ng/ml, 3 days", "description": "as §1"}, "PAC1 SMC": {"system": "PAC1 SMC", "experiment": "Cell death after recombinant MDA-7", "assay_type": "cell-based, rat", "description": "Cell viability was determined using the Trypan-blue exclusion assay. Briefly, total cells (suspension+trypsinized) were mixed 1:1 with Trypan blue solution (Gibco-BRL) and then observed under a hemocytometer via light microscopy. The percent of blue cells (dead cells) were counted (an average count of 3-5 fields were made).\nCells are plated in chamber slides and treated with MDA-7 protein for 60 minutes and then washed thoroughly with PBS (3×). The cells are then fixed with methanol:acetic acid (95:5 vol:vol) and stained with anti-pStat3 monoclonal antibody (1:1000 dilution; Cell Signalling) for 1 h at 4° C. The cells are then washed 3× with PBS and treated with secondary antibody (1:1000 dilution; Texas Red-conjugated-Rabbit anti mouse IgG; Sigma) for 1 h at 4° C. The cells are then washed and examined under fluorescence microscopy."}, "SK-Mel-1 [7]": {"system": "SK-Mel-1", "experiment": "Trypan blue viability", "assay_type": "cell-based, human", "settings": "40 ng/ml, 3 days", "description": "(§2) rhMDA-7 (IL-24) protein was purified from 293-mda7 cells using affinity chromatography. Various lots of protein ranged from 30% ->80% purity based upon silver stain. The rhMDA-7 protein was applied to melanoma cell lines, and cells assessed for viability using the Trypan blue assay. […] Treatment of melanoma cells with rhMDA-7 results in rapid activation (via phosphorylation) of STAT3. The cytotoxicity observed in melanoma cells is inhibited by anti-MDA-7 antibodies.\nas §1"}, "A375.S2 [8]": {"system": "A375.S2", "experiment": "Trypan blue viability", "assay_type": "cell-based, human", "settings": "40 ng/ml, 3 days", "description": "as §2, §1"}, "WM793 [9]": {"system": "WM793", "experiment": "Trypan blue viability", "assay_type": "cell-based, human", "settings": "40 ng/ml, 3 days", "description": "as §2, §1"}, "WM35 [10]": {"system": "WM35", "experiment": "Trypan blue viability", "assay_type": "cell-based, human", "settings": "40 ng/ml, 3 days", "description": "as §2, §1"}, "MeWo [11]": {"system": "MeWo", "experiment": "Trypan blue viability", "assay_type": "cell-based, human", "settings": "40 ng/ml, 3 days", "description": "as §2, §1"}, "A375 [12]": {"system": "A375", "experiment": "Trypan blue viability", "assay_type": "cell-based, human", "settings": "40 ng/ml, 3 days", "description": "as §2, §1"}, "[13]": {"system": "bFGF-induced angiogenesis", "experiment": "In vivo Matrigel plug angiogenesis assay", "set-up": "species or system athymic nude mice", "settings": "12.5 ng in Matrigel with 60 ng bFGF; 10 days", "description": "To determine the antiangiogenic activity of sMDA-7, an in vivo angiogenesis assay was performed. Briefly, sMDA-7 (12.5 ng) and bFGF (60 ng) was mixed with 500 μl of Matrigel (Beckton Dickinson, Bedford, Mass.) on ice and injected subcutaneously into athymic nude mice. Animals receiving Matrigel containing only bFGF (60 ng) served as positive controls and animals receiving Matrigel containing no growth factor served as negative controls. Each group comprised of five animals and the experiments were performed twice. Animals were sacrificed 10 days after injection. The Matrigel plugs were recovered, photographed, and subjected to hemoglobin analysis as previously described (Pessaniti et al., 1992)."}, "[14]": {"system": "A549 cells and CCD16 cells", "experiment": "Clonogenic survival with MDA-7 conditioned medium and radiation", "assay_type": "cell-based, human", "settings": "10 ng/ml", "description": "FIG. 60. Clonogenic survival of A549 cells (A) and CCD16 cells (B). Cells were serum starved for 12 hours and treated with conditioned medium containing mda7 protein (10 ng/ml). Twelve hours later, cells were irradiated, harvested and plated in regular medium. After incubation for 14 days, colonies were counted and survival.\nTwelve hours after seeding HUVECs in 4-well plates (Nunc, Roskilde, Denmark), medium was replaced with serum/growth factor-free medium. After serum/growth factor starvation for 12 hours, cells were treated with complete medium containing either MDA-7 protein (10 ng/ml) (removed from cultures of 293 cells), angiostatin (100 ng/ml), or endostatin (100 ng/ml). Twelve hours later, cells were irradiated with ^137CS unit (3.4 Gy/min) at room temperature, trypsinized and counted. Known numbers of cells were replated in 60 mm culture dishes and incubated to allow macroscopic colony development. Colonies were counted after 14 days, and the percent plating efficiency and surviving fractions following given treatments were calculated based on the survival of non-irradiated cells."}, "HUVEC [15]": {"system": "HUVEC", "experiment": "Endothelial cell migration assay (Transwell, VEGF)", "assay_type": "cell-based, human", "settings": "VEGF 100 ng/ml", "description": "Cell migration assays were performed using HUVEC. Cells were starved overnight in basal medium containing 0.5% fetal bovine serum, collected, resuspended in the same medium, and seeded at a concentration of 10^5 cells/well on the upper surface of a 24-well transwell insert with a pore size of 8 μm (Millipore, Cambridge, Mass.). The insert was placed in a six-well plate that contained medium plus PBS, medium plus VEGF (100 ng/ml) or VEGF plus sMDA-7 (10 or 50 ng/ml). The plates containing the transwell insert were incubated at 37° C. overnight to allow migration. The next day, the wells were disassembled, membranes were fixed in crystal violet, and the number of cells that had migrated to the lower wells was counted under high-power magnification (×40)."}, "HUVEC [16]": {"system": "HUVEC", "experiment": "IP-10 and IFN-γ production by ELISA", "assay_type": "cell-based, human", "settings": "10 ng/ml; 48 h period", "description": "Furthermore, IFN-γ is a potent inducer of IP-10 (Majumder et al., 1998). […] Studies were conducted to determine whether the antiangiogenic activity of sMDA-7 was mediated by IFN-γ or IP-10. HUVEC were seeded in 6-well plates (1×10^5/well) and treated with sMDA-7 (10 ng/ml). Cell culture supernatant was collected at 6 h, 24 h, and 48 h after treatment, centrifuged at 1200 rpm, and analyzed for IP-10 and IFN-γ protein production using commercially available ELISA kits. Assays were performed as recommended by the manufacturer (R&D systems, Minneapolis, Minn.). […] Cells treated with PBS served as negative controls in these experiments. Samples were analyzed in quadruplicate, and data represented as the average value for each concentration of sMDA-7 tested."}}, "data": [{"molecule": "sMDA-7: soluble secreted human MDA-7 (IL-24) protein purified from stably transfected 293-mda-7 cells (protein) AQGQEFHFGPCQVKGVVPQKLWEAFWAVKDTMQAQDNITSARLLQQEVLQNVSDAESCYLVHTLLEFYLKTVFKNYHNRTVEVRTLKSFSTLANNFVLIVSQLQPSQENEMFSIRDSAHRRFLLFRRAFKQLDVEAALTKALGEVDILLTWMQKFYKL", "values": [{"measurement": "% TUNEL Positive", "setting": "SK-Mel-1 [1]", "result": 5.0, "unit": "%"}, {"measurement": "% TUNEL Positive", "setting": "A375.S2 [2]", "result": 12.3, "unit": "%"}, {"measurement": "% TUNEL Positive", "setting": "WM793 [3]", "result": 9.88, "unit": "%"}, {"measurement": "% TUNEL Positive", "setting": "WM35 [4]", "result": 17.88, "unit": "%"}, {"measurement": "% TUNEL Positive", "setting": "MeWo [5]", "result": 12.11, "unit": "%"}, {"measurement": "% TUNEL Positive", "setting": "A375 [6]", "result": 18.78, "unit": "%"}, {"measurement": "cell death", "setting": "PAC1 SMC", "result": "No statistically significant increase in cell death"}, {"measurement": "% Dead", "setting": "SK-Mel-1 [7]", "result": 5.2, "unit": "%"}, {"measurement": "% Dead", "setting": "A375.S2 [8]", "result": 22.2, "unit": "%"}, {"measurement": "% Dead", "setting": "WM793 [9]", "result": 5.2, "unit": "%"}, {"measurement": "% Dead", "setting": "WM35 [10]", "result": 17.6, "unit": "%"}, {"measurement": "% Dead", "setting": "MeWo [11]", "result": 20, "unit": "%"}, {"measurement": "% Dead", "setting": "A375 [12]", "result": 26.6, "unit": "%"}, {"measurement": "bFGF-induced angiogenesis (hemoglobin)", "setting": "[13]", "result": "significantly inhibited"}, {"measurement": "radiosensitizing effects", "setting": "[14]", "result": "does not produce radiosensitizing effects"}, {"measurement": "concentration giving complete inhibition of migration", "setting": "HUVEC [15]", "result": 50, "unit": "ng/mL"}, {"measurement": "endothelial cell migration in response to VEGF", "setting": "HUVEC [15]", "result": "inhibited endothelial cell migration significantly"}, {"measurement": "induced secretion of IFN-γ", "setting": "HUVEC [16]", "result": "< 30", "unit": "pg/mL"}, {"measurement": "induced secretion of IP-10", "setting": "HUVEC [16]", "result": "< 32", "unit": "pg/mL"}]}]}
